From publication PMC5760668, “Structure function and engineering of multifunctional non-heme iron dependent oxygenases in fungal meroterpenoid biosynthesis” (Nature Communications, 2018)

T1: AusE-(6P-A298) (Aspergillus nidulans, UniProt Q5AR34)
T1 construct: crystal construct, N-terminal truncated 6P-A298 in pET28a, E. coli, EDTA-treated, Mn(II) reconstituted; homodimer
T1 sequence (Q5AR34 6-298): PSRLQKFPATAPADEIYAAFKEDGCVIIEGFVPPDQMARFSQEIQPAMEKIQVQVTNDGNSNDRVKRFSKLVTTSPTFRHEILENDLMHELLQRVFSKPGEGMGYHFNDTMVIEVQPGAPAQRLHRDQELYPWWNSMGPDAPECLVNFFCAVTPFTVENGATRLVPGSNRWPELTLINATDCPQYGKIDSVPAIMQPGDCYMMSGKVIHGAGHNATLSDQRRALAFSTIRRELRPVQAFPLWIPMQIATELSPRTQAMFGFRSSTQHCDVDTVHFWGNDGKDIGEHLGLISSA

T2: PrhA-(6P-A298), N-terminal truncated and C-terminal chimeric PrhA (Penicillium brasilianum, UniProt A0A1E1FFL0, E295I/A296S/P297S/S298A)
T2 construct: crystal construct PrhA-(6P-A298): residues from Pro6, C-terminal Glu295-Val301 replaced by AusE Ile295-Ser296-Ser297-Ala298, in pET28a, EDTA-treated; homodimer; Asp276′ of the other chain contacts substrate
T2 sequence (A0A1E1FFL0 6-298 E295I/A296S/P297S/S298A): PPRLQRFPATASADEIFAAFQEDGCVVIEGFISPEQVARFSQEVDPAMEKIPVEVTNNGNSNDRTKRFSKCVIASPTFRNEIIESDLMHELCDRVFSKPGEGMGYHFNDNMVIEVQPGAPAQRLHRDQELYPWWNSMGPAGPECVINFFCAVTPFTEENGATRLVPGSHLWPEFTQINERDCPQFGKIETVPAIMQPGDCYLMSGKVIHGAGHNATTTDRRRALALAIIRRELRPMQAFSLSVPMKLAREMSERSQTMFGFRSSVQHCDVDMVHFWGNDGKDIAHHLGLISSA


What was measured:
AusE-(6P-A298) = target: T1, AusE-(6P-A298); assay: X-ray crystal structure; format: binding; conditions: Mn(II), anaerobic; co-substrate
[1] = target: T2, PrhA-(6P-A298), N-terminal truncated and C-terminal chimeric PrhA; assay: X-ray crystal structure; format: binding; conditions: Fe(II); crystal soaked with αKG; co-substrate, bidentate chelation
[2] = target: the molecule itself; assay: dynamic light scattering; purified enzymes; monomodal distribution, polydispersity 18.2 and 21.1%; predicted masses compared with the calculated 35.1 kDa
[3] = target: the molecule itself; assay: crystal structure; anaerobic vapor diffusion at 20 °C; AusE with MnCl2 (and αKG); PrhA and mutants crystallised as apo form and soaked with FeSO4, αKG and substrate; homodimer in the crystal

| Molecule | stoichiometry N [2] | stoichiometry N [3] | further results |
| --- | --- | --- | --- |
| O=C(O)CCC(=O)C(=O)O [α-ketoglutarate] |  |  | X-ray crystal structure (AusE-(6P-A298)): X-ray crystal structures of AusE complexed with Mn(II) and αKG (AusE-Mn/αKG); X-ray crystal structure [1]: in complex with Fe(II) and αKG (PrhA-Fe/αKG) |
| wild-type AusE (AusE-(M1-A298)) (enzyme, Aspergillus nidulans, UniProt Q5AR34 1-298, looked up, AusE, Fe(II)/αKG-dependent oxygenase, Aspergillus nidulans; It may have been the 6-298 crystallisation construct; also called recombinant AusE; source: E. coli Rosetta 2(DE3)pLysS, purified (HisTrap HP, HiTrap Q HP, Superdex 200)) MGSATPSRLQKFPATAPADEIYAAFKEDGCVIIEGFVPPDQMARFSQEIQPAMEKIQVQVTNDGNSNDRVKRFSKLVTTSPTFRHEILENDLMHELLQRVFSKPGEGMGYHFNDTMVIEVQPGAPAQRLHRDQELYPWWNSMGPDAPECLVNFFCAVTPFTVENGATRLVPGSNRWPELTLINATDCPQYGKIDSVPAIMQPGDCYMMSGKVIHGAGHNATLSDQRRALAFSTIRRELRPVQAFPLWIPMQIATELSPRTQAMFGFRSSTQHCDVDTVHFWGNDGKDIGEHLGLISSA | 2 |  |  |
| wild-type PrhA (PrhA-(M1-V301)) (enzyme, Penicillium brasilianum, UniProt A0A1E1FFL0 1-301, looked up, PrhA, Fe(II)/αKG-dependent oxygenase, Penicillium brasilianum; It may have been the chimeric 6-298 crystallisation construct; also called recombinant PrhA; source: E. coli Rosetta 2(DE3)pLysS, purified (HisTrap HP, HiTrap Q HP, Superdex 200)) MAPMIPPRLQRFPATASADEIFAAFQEDGCVVIEGFISPEQVARFSQEVDPAMEKIPVEVTNNGNSNDRTKRFSKCVIASPTFRNEIIESDLMHELCDRVFSKPGEGMGYHFNDNMVIEVQPGAPAQRLHRDQELYPWWNSMGPAGPECVINFFCAVTPFTEENGATRLVPGSHLWPEFTQINERDCPQFGKIETVPAIMQPGDCYLMSGKVIHGAGHNATTTDRRRALALAIIRRELRPMQAFSLSVPMKLAREMSERSQTMFGFRSSVQHCDVDMVHFWGNDGKDIAHHLGLEAPSVHV | 2 |  |  |
| N-terminal truncated AusE-(6P-A298) (enzyme, Aspergillus nidulans, UniProt Q5AR34 6-298, looked up, AusE, Fe(II)/αKG-dependent oxygenase of austinol biosynthesis, Aspergillus nidulans; residues P6-A298, cloned NdeI/BamHI into pET28a; Crystallised with Mn(II), and with Mn(II) and αKG; also called AusE-Mn; AusE-Mn/αKG; source: E. coli Rosetta 2(DE3)pLysS, purified (HisTrap HP, HiTrap Q HP, EDTA treatment, Superdex 200)) PSRLQKFPATAPADEIYAAFKEDGCVIIEGFVPPDQMARFSQEIQPAMEKIQVQVTNDGNSNDRVKRFSKLVTTSPTFRHEILENDLMHELLQRVFSKPGEGMGYHFNDTMVIEVQPGAPAQRLHRDQELYPWWNSMGPDAPECLVNFFCAVTPFTVENGATRLVPGSNRWPELTLINATDCPQYGKIDSVPAIMQPGDCYMMSGKVIHGAGHNATLSDQRRALAFSTIRRELRPVQAFPLWIPMQIATELSPRTQAMFGFRSSTQHCDVDTVHFWGNDGKDIGEHLGLISSA |  | 2 |  |
| N-terminal truncated and C-terminal chimeric PrhA-(6P-A298) (enzyme, PrhA, Fe(II)/αKG-dependent oxygenase of paraherquonin biosynthesis, Penicillium brasilianum; from P6 up to the residue before Glu295 (Glu295-Val301 were replaced); AusE, Aspergillus nidulans, residues Ile295-Ser296-Ser297-Ala298, put in place of PrhA Glu295-Val301; Crystallised as apo form; Fe(II), αKG and preaustinoid A1 (5) were soaked in; also called PrhA-Fe; PrhA-Fe/αKG; source: E. coli …) PPRLQRFPATASADEIFAAFQEDGCVVIEGFISPEQVARFSQEVDPAMEKIPVEVTNNGNSNDRTKRFSKCVIASPTFRNEIIESDLMHELCDRVFSKPGEGMGYHFNDNMVIEVQPGAPAQRLHRDQELYPWWNSMGPAGPECVINFFCAVTPFTEENGATRLVPGSHLWPEFTQINERDCPQFGKIETVPAIMQPGDCYLMSGKVIHGAGHNATTTDRRRALALAIIRRELRPMQAFSLSVPMKLAREMSERSQTMFGFRSSVQHCDVDMVHFWGNDGKDIAHHLGLISSA |  | 2 |  |
